The record followed here is patent publication US20260356955 (published 2026).

In test [1] the target is human KLRB1 ECD (human). As to the kind of experiment: ELISA.
Test [2] has as its target T1, cynomolgus KLRB1 on CHO-K1 (cynomolgus).
T1 chain: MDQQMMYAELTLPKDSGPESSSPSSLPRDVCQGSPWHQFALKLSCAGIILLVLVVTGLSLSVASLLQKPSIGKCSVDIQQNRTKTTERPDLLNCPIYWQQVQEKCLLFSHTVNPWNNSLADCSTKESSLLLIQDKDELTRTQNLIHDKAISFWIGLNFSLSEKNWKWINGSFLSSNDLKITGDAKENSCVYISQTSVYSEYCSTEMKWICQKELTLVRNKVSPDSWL
The experiment in a line: FACS.

The target in test [3] is human KLRB1 on CHO-K1 (human). As to the kind of experiment: competition, CLEC2D, FACS.
Test [4] has as its target T2, cynomolgus KLRB1 ECD (cynomolgus).
T2 chain: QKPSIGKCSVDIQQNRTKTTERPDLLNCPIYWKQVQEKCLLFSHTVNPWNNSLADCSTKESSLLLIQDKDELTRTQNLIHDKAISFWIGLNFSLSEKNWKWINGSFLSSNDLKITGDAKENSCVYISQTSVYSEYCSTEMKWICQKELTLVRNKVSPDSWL
The experiment in a line: ELISA.

For test [5], the target named is human KLRB1 ECD (human). The experiment in a line: ELISA. The source holds these as a separate data set.
The target of test [6] is T1, cynomolgus KLRB1 on CHO-K1. As to the kind of experiment: FACS.
For test [7], the target named is human KLRB1 ECD (human). As to the kind of experiment: SPR.
Test [8] concerns the target T2, cynomolgus KLRB1 ECD. As to the kind of experiment: SPR.
In test [9] the target is human KLRB1 on CHO-K1 (human). As to the kind of experiment: FACS.
Test [10] addresses T2, cynomolgus KLRB1 ECD. As to the kind of experiment: ELISA.
In test [11] the target is human KLRB1 on CHO-K1 (human). The experiment in a line: FACS. This is another data set of the same source.
The target in test [12] is human KLRB1 on CHO-K1 (human). The experiment in a line: competition, CLEC2D, FACS. This is another data set of the same source.
The target in test [13] is T1, cynomolgus KLRB1 on CHO-K1. As to the kind of experiment: FACS.
In test [14] the target is T2, cynomolgus KLRB1 ECD. As to the kind of experiment: ELISA.
Test [15] has as its target human KLRB1 on CHO-K1 (human). As to the kind of experiment: FACS. This is another data set of the same source.
The target in test [16] is human KLRB1 ECD (human). As to the kind of experiment: ELISA. This is another data set of the same source.
Test [17] deals with human KLRB1 ECD (human). The experiment in a line: SPR. The source holds these as a separate data set.

Where two headings read alike, the source gives them in different places.

human KLRB1 on CHO-K1 (human), sequence (chain, as listed by the source): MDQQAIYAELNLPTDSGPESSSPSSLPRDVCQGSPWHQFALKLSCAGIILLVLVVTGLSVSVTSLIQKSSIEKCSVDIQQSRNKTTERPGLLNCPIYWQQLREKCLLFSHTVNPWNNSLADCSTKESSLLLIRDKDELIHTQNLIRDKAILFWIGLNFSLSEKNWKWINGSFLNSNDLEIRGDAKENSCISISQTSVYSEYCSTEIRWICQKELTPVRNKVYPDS
human KLRB1 ECD (human), sequence (chain, as listed by the source): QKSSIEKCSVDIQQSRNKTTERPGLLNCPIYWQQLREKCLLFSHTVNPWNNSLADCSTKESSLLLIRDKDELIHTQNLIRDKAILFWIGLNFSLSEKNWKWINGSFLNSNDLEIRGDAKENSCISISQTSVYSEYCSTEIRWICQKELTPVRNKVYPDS

B1: Hu47A5H2-11 (antibody, V domains shown)
VH: QVQLVQSGAEVKKPGASVKVSCKASGYSFTGYWMHWVRQAPGQGLEWMGMIHPSDSETRLNQKFKDRVTMTVDKSTSTVYMELSSLRSEDTAVYYCASEGLRRGSFAYWGQGTLVTVSS
VL: DIVLTQSPDSLAVSLGERATINCRASESVDNYGMTFMSWFQQKPGQPPKLLIYAASNQGSGVPDRFSGSGSGTDFTLTISSLQAEDVAVYYCQQSKEVPYTFGQGTKLEIK
As for B1, the EC50 in [1] is 0.016 nM; in test [2], ~1.77 nM; in test [4], 0.024 nM; in test [5], 0.0238 nM; in test [6] it was 14.9 nM; in test [9] it was 1.6 nM. Also, the EC50 is 0.01 nM in test [10] and 3.01 nM in [11]. Besides, the concentration for half-maximal inhibition (IC50) in test [3] was determined as 1.97 nM; in [12] it was 3.61 nM. Further, the Kd in [7] came out at 0.639 nM; in test [8], 1.94 nM.

B2: Hu50A8F2-04 (antibody, V domains shown)
VH: QVQLVQSGAEVKKPGASVKVSCKASGYTFIDYYINWVRQAPGQGLEWMGWIFPGSGHTKYNENFKGRVTMTRDTSTSTVYMELSSLRSEDTAVYYCARGDRSALGYFDYWGQGTTVTVSS
VL: DIQLTQSPSSLSASVGDRVTITCTASSSVSSTYLHWYQQKPGKSPKLLIYSTSNLASGVPSRFSGSGSGTDYTLTISSLQPEDAATYYCHQYHRSPLTFGQGTKLEIK
On to B2, for which the concentration giving a half-maximal response (EC50) in [1] was found to be 0.033 nM; in test [15], 5.45 nM; in test [16] it was 0.0201 nM; in test [11], 6.81 nM. For the same molecule, the binding result in [13] and in test [14] was “no binding” each time. This molecule also gave a Kd in [17] of 0.693 nM.
